These results are taken from the nanobody polyreactivity screen of Harvey et al. (2022).

The data set is described as follows: yeast display, Sf9 membrane polyspecificity reagent, FACS + sequencing; frameworks hold sequencing errors. The procedure, abridged: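 Galactose-induced (36–48 hours) yeast carrying a synthetic nanobody display library were exposed to 10% biotinylated, detergent-solubilized Sf9 membrane reagent at 4 °C for 1 hour. FACS followed streptavidin microbead enrichment, using low and high (top ~1%) gates for expression (anti-HA) and reagent binding (streptavidin). Colony PCR, MiSeq 2 × 250 sequencing and CDR-length filtering followed. Labels for polyreactivity reflect the gate of origin.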
For the sequence “QVQLQESGGGLVQAGGSLRLSCAASGTISSSDAMGWYRQAPGKEREFVATIASGTTTYYADSVKGSFTISRDNAENSVYLQTNSLKPEDTAVYYCAAPTIQIYPFYYWGQGTQVTVSS”, the “polyreactivity (PSR sort gate)” value is “high polyreactivity”.
Turning to “QVQLQESGGGLVQAGGSLRLSCAASGTISVHASMGWYRQAPGKERELVAGITDGANTYYADSVKGRFTISRDNSKNTVYLQMNSLKPEVTAVYYCAAYYGTEVHFTYWGLGTQVTVSS”, the “polyreactivity (PSR sort gate)” value is “low polyreactivity”.
For “QVQLQESGGGLVQAGGSLRLSCAASGTIYWLWAMGWYCLAPGKERELVASISSGGTTYHADSVKGRFTISRDNAKYSVYLQMNSLKPEDTAVFYSAAFYVASAKLGYWGQGSQVTVSS”, the “polyreactivity (PSR sort gate)” value was “low polyreactivity”.
Turning to “QVQLQESGGGLVQAGGSLRLSCAASGTLSPLPAMGWYRQAPGKEREFVPGIDTGAITNYADSLKGRFTISRDNAKYTVYLQMNSLKPEDTAVYYCAVFPAAYLYYERYDTYWGQGTQVTVSS”, the “polyreactivity (PSR sort gate)” value is listed as “low polyreactivity”.
For the sequence “QVQLQESGGGLVQAGGSLRLSCAASGYISHADEMGWYRQAPGKEHELVASISNGGSTNYADSVKGRFTISRDNAKNTVYLQMNSLKSEDTAVYYCAAWTGQVDIHYYWGQGTQETVSS”, the “polyreactivity (PSR sort gate)” value is given as “low polyreactivity”.
The result for “QVQLQESGGGLVQAGGSLRLSCAASGYISLAQTIGWYRQAQGKEREFVASIALGSSTYYTDSVKGSFTISRDNAKTTVYLQMNSLKPEDTAVYYCAARVGASYAHDYWGQGTQVTLSS” reads “low polyreactivity”; that for “QVQLQESGGGLVQAGGSLRLSCAASGYISQSSVMGWYRQAPGKERDFVASISYGATTYYADSVKGRFTISRDNAKNTVYLQTNSPKPEDTAVYYCAVGVKRGFSHRYWGQGTQVTVSS”, “high polyreactivity”; that for “QVQLQESGGGLVQAGGSLRLSCAASGYISSWYPMGWYRQAPGKEREFVATIAPGATTYYADSVKGRFTISRDYAKNTVYLQMNSLKPEDTAVYYCAAGPLNNDFYSYWGQGTQVTVSS”, “low polyreactivity”.
Turning to “QVQLQESGGGLVQAGGSLRLSCAASGYISTFSSEMGWYRQAPGKERELVASIAPGCTTSYADSVKGRFTISRDNAKNTVYLQMNSLKPEDTAVYYCAVDFTVPASFGYWGQGTQVTVSS”, the “polyreactivity (PSR sort gate)” value was “high polyreactivity”.
Consider “QVQLQESGGGLVQAGGSLRLSCAASGYISTWYPMGWYRQAPGKEREFVATIAPGATTYYADSVKGRFTISRDYAKNSVYLQMNSLKPEDTAVYYCAAGPENNDFYSYWGQGTQVTVSS”, for which the “polyreactivity (PSR sort gate)” value is “low polyreactivity”.
As to “QVQLQESGGGLVQAGGSLRLSCAGSGYIFPRIYMGWYRQAPGKEREFDAGISYDAITNYADSVKGRFTISLDNAKNTVYLQMNSLKPEDTAVYYCAVSYYGTPLFTYWGQGTQVTVSS”, the “polyreactivity (PSR sort gate)” value is “high polyreactivity”.
On to “QVQLQESGGGLVQAGGSLRLSCASSGSISILQSMGWYRQAPGKERELVAGINWGATTYYADSVKGRLTTSRDYAKNTVYLQMNSLKPEDTGVYYCAVPTYYTYPLLYWGQGTQVTVSS”, for which the “polyreactivity (PSR sort gate)” value was “low polyreactivity”.
With “QVQLQESGGGLVQAGGSLRLSCAVSGTIFFPLDMGWYRQAPGREREYVAAIAEGTSTYYADSVKGRFTISRDNAKNTVYPQMYSLNPEDTAVYYCAAYRSTPQQFHYWGQGTQVTVSS”, the “polyreactivity (PSR sort gate)” value is given as “high polyreactivity”.
The result for “QVQLQESGGGLVQAGGSLRLSSAASGPISRRSTMGWYRQAPGKERELVTAITRGTNTNYADSVKGRFTISRDNAMNTEYLQMNSLKPEDTAVYYCAAYGVLKPSRGDAVFHRYWGQGTQVTVSS” reads “low polyreactivity”; that for “QVQLQESGGGLVQAGGSLRPLCAAGGTIFVSVNMRLYRHAPGEEREFVASITQGATTNYADSLIGRFTISRDNAKNTVYLLMNCQKPEDTEVYYCAVHESGGITFTYWGQGTQVTVSS”, “high polyreactivity”.
The entry for “QVQLQESGGGLVQAGGSLRPSCAASGSISDGVRMGWYRQAPGEEGELVATTVLGATTNYADSVKGRFTISRGNAKNTVYLLMTSLKAEATAVYYCAAPLRYDKGFSYWGQGTQVTVSS” is “low polyreactivity”.
Turning to “QVQLQESGGGLVQAGGSLRPSCAASGSISDRWWMGLYRQAPGKERESVAGINDGASTYYADSVKGRFTISCDNAKNTVYLQMNSLKPEDTAVYYCAVYVFITGCLNYWGQGTQVTVSS”, the “polyreactivity (PSR sort gate)” value is recorded as “high polyreactivity”.
Turning to “QVQLQESGGGLVQAGGSLRPSCAPSGSISDGDPMAWYRQAPGEERELVATTVLGATTNYADSVKGRFTISRGNAENTVYLERYWLKPVETAVYYCAAPLRYDKGFSYWGQGTQVTVSS”, the “polyreactivity (PSR sort gate)” value is reported as “low polyreactivity”.
The entry for “QVQLQESGGGLVQAGGSLRQSCAASGYIFQPFYMGWYRQAPGKERELVAGISVGGNTYYADSVKGRFTISRDNAKNSVFLQMNSLKPEDTAVYYCAVQFVLQDKYVYWGQGTQVTVSS” is “low polyreactivity”; for “QVQLQESGGGLVQAGGSPRLSCAASDNIFPDSVMCWSRQAPGKERELVATIGFGATTNYADSVKGRFTISRDNAKNTVYLQMNSLKPEDTAVYYCAADPLNYEYFCYWGQGTQVTVSS” it is “low polyreactivity”; for “QVQLQESGGGLVQAGGSQRLSCAASGTITVLYKMGRFRQAPGKEREFVASINYGTSTYYADSVKGRFTLSRDSAKNTVYLQMNSLKPEDTAVYYCAAAYRWQDVYRYWGQGTQVTVSS” it is “low polyreactivity”.
Take “QVQLQESGGGLVQAGGSQRLTCAASGYIFYFQYMGWYRPAPGKEREFVAAISDGANTNYADSVKGRFTISRDNAKNTEYLQMNSLKPEDTAVYYCSVYADENYYYIYWGQGTQVTVSS”: the “polyreactivity (PSR sort gate)” value is given as “low polyreactivity”.
The entry for “QVQLQESGGGLVQAGGTLRLSCQASGSIFVSVTMGWYRQAPGKERELVASIGRGSTTNHADSVKGRFTISRDNAKNIVYLLMNSLKPEDTAVYYCAALESYGKYHGYWGQGTQVTVSS” is “low polyreactivity”.
For “QVQLQESGGGMVQAGGSLRLSCAASGYISWADNMAWYRQAPGKERELVAGIGYGSTTYYADSVKGRFTISRDNAKNTAYLQMNSLKPEDTSVYYCAVGWYRDTAYKYWGQGTQVTVSS”, the “polyreactivity (PSR sort gate)” value is “low polyreactivity”.
Regarding “QVQLQESGGGMVQAGGSLRLSRATSGTISATKGMCRYRQAPGKERELVAGINYGGNTNYADNVKGRFTISRDNAKNTVYLQMNSLKPGDTAVYYCAAEPRGVTDLGYWGQGTQVTVSS”, the “polyreactivity (PSR sort gate)” value is given as “low polyreactivity”.
For the sequence “QVQLQESGGGQVQAGGSLRLSCAASGNNSVTGFMGRYRQAPGKERELVASIGIGGTTYYADSVKGRFSISRDNAKNTVYLQMNSLKPEDTAVYYCAARYLYYAYSYWGQGTQVTVSS”, the “polyreactivity (PSR sort gate)” value is “low polyreactivity”.
Turning to “QVQLQESGGGQVQAGGSLRLSCAASGTISDSGLMGWYRQAPGKERELVAGISSGGITNYADSVKGRFTISRDNAKNTVYLQMNILKPEDTAVYWGQGTQVTVSI”, the “polyreactivity (PSR sort gate)” value is “low polyreactivity”.
Turning to “QVQLQESGGGQVQAGGSLRLSCAASGYISTHYFMGWYRQAPGKDREFVAGISNGSITNYADSVKGRFTISRDNARNTVYLQMNSLKPEDTAVYYGAAYDWTYVRFGYWGQGTQVTVSG”, the “polyreactivity (PSR sort gate)” value is listed as “high polyreactivity”.
On to “QVQLQESGGGQVQAGGSLRLSCAPSGYISSWYPKGWYRQAPGKEPEFVATIAPGATNYYADSVKGRFTISRDYAKNTVYQQMNSLKPEDTAVYYCAVVSNGRRERYYYWGQGTQVTVSS”, for which the “polyreactivity (PSR sort gate)” value was “low polyreactivity”.
Consider “QVQLQESGGGQVQAGGSLRLSCEASGTIFLYAFMGWYRQAPGKERELVAAIDVGTTTNYADSVKGRFTISRDNAKNTVYLQMNSLKPEDTAVYYCAANLGYLDDLGYWGQGTQVTVSS”, for which the “polyreactivity (PSR sort gate)” value is “low polyreactivity”.
The result for “QVQLQESGGGQVQAGGSLRPSCAASGSISDRVPMGWYRQAPGEERELVATTVLGATTNYADSVKGRFTISRGNAKNTVYLQMNSLKPEETAVYYCAAPLRYDKGFSYWGEGTQVTVSS” reads “low polyreactivity”; that for “QVQLQESGGGVQAGGSLRLSCAASGSISAPILMGWYRQAPGKERELVAGIGGGANTYYADSVKGRFTFSRDNAKYTVYLQMYSLKPEDTAVYYCAAGDYYWTNFGYWGQGTQVTASS”, “high polyreactivity”.
“QVQLQESGGLVQAGGLRLSCAASGYVSYQEAMGWYRQAPGKEREIVATISFGANTNYADSVKGRFTISRDNAKNTVYLQMNSLKPEDTAVYYCAAESLFDVYYGYWGQGTQVTVSS”: the “polyreactivity (PSR sort gate)” value is reported as “low polyreactivity”.
With “QVQLQESGGLVQAGGLRLSCEASGSVSYQEGMGWYRQATGKERELVATISFGANTNYADSVKGRFTISRDNAKNTVYLQMNSLKTEDTAVFYCAADSLFDDYYGYWGQGTQVTVSS”, the “polyreactivity (PSR sort gate)” value is “low polyreactivity”.
Consider “QVQLQESGGRLVQAGGSLRLSCAASGNIFPTVSMGWYRQAPGKDREFVVTIDPGSNTYYADSAKGRFTISRDNAQNTVYLQMNSPKPEDTAVYYCAVVFADWATYGYWGQGTQVTVSS”, for which the “polyreactivity (PSR sort gate)” value is “high polyreactivity”.
The entry for “QVQLQESGGRLVQAGGSLRLSCAATGTIFTERFMGWYRQAPGKERELVAVISPGTSTNYADSVKGRFTISRDNAKNTVYLQMNSLKPEDTAVYYCAADWSTGNTLPYWGQGTQVTVSS” is “high polyreactivity”; for “QVQLQESGGRLVQSCGTLRLSCAASGTITVLYKIGRFRQAPGKEREFVASINYGTSTYYADSVKGRFTVSRDSAKNTVYLQMNSLKPEDTAVYYCAAAYRWQDVYRYWVQGTQVTVSS” it is “low polyreactivity”.
Regarding “QVQLQESGGSLVQAGGSLRLSCSASGNILVLPHGLVSPGAERELVATITGGSITYYADSEKGRFTISRDNAKNTVYLQMNSLKPGDTAVYYCAVINIYHRPHPYWGQGTLVTVSS”, the “polyreactivity (PSR sort gate)” value is on record as “high polyreactivity”.
The result for “QVQLQESGGVLMQAGGNLRLSFPASGYISTHYDMDWYRQAPGKERELVARIDDGAITNYADSVKGRFTISRDNAKNTVYLQMNSLKPEDTAVYYCAVYYGDDYYHDYWGQGTQVTVSS” reads “low polyreactivity”; that for “QVQLQESGGVQAGGSLRLSCAASGYISRSDVMGWYRQAPGKERELVATINNGTITYYADSVKGRFTISRDNATNTVYLQMNSLKPEDTAVHYCAVVQSDTDSLYYWGQGTQVTVSS”, “low polyreactivity”; that for “QVQLQESGGVQAGGSLRLSSAASSYISRSDVMGWYRQAPGKERELVATINNGTITYYADSVKGRFTISRDNAKNTVYLQMNSLKPEDTAVHYFAVVQSDTDSLYYWGHGTQVTVSS”, “low polyreactivity”.
